These are literature values, as cited in article PMC8217106.

By Kd is commonly meant the equilibrium constant for the complex coming apart.

This series has as its target BCL9 (Homo sapiens) (UniProt O00512).
UniProt O00512, sequence (O00512 whole entry): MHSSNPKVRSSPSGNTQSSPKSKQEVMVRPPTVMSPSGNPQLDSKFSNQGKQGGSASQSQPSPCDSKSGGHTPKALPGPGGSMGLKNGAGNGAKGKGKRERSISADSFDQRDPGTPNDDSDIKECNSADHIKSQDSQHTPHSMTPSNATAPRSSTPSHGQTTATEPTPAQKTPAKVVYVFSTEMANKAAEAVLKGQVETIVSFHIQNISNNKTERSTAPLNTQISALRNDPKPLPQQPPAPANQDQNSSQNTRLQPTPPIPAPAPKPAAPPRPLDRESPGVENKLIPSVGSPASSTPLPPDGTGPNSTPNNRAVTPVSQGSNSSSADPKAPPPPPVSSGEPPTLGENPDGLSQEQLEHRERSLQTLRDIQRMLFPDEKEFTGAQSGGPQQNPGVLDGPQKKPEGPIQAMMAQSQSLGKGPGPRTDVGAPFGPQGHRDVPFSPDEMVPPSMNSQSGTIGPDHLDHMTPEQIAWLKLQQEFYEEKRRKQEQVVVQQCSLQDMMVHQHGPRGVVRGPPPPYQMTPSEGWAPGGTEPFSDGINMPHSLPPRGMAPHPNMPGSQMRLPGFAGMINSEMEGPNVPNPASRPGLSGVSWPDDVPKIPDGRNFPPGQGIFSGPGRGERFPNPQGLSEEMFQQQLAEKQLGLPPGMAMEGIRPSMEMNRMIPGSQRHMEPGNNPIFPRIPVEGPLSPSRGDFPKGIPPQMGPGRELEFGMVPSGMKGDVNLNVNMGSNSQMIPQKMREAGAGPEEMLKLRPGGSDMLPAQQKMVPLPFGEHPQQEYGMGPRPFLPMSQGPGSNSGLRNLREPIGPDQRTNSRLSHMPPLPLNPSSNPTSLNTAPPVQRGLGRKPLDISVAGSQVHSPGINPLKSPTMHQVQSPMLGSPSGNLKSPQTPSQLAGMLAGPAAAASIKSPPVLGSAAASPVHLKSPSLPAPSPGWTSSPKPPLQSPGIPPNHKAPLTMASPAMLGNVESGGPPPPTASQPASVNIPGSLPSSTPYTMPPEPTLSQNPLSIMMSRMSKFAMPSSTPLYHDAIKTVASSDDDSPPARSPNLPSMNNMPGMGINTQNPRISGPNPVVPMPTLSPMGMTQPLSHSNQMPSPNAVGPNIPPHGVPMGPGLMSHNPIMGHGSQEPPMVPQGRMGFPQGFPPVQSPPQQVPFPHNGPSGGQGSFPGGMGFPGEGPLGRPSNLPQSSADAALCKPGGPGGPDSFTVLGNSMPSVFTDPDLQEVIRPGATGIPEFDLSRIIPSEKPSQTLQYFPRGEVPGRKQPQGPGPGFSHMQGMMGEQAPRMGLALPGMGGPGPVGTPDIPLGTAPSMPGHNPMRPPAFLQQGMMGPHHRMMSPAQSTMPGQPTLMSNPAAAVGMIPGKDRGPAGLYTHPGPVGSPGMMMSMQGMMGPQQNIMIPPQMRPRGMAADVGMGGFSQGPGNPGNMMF

Consider β-catenin (from UniProt P35222), for which the Kd is 470 nM.
